Data on 7 molecules can be found in paper PMC12079402 (Protein Science : A Publication of the Protein Society, 2025).

As a reminder, the Kd is the equilibrium constant for the complex coming apart. Read a high Kd as weaker binding. By stoichiometry N is commonly meant the number of molecules, sites or subunits per partner or assembly.

T1: ANAC046 intrinsically disordered region, ANAC046(172-338) (Arabidopsis thaliana, UniProt Q9SQQ6 172-338)
T1 sequence (looked up): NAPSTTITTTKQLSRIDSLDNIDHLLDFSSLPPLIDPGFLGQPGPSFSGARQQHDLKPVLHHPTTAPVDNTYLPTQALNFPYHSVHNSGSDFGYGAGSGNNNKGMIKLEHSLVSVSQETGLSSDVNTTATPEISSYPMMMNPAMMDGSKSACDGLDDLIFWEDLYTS

B1: KIX domain of HAC1, HAC1-KIX(43-134) (domain or fragment, Arabidopsis, UniProt Q9C5X9 43-134, looked up)
chain: GPSRVSPVDNDILKLRQAMRIRIFNILQQKQPSPADEASKAKYMDVARRLEEGLFKIANTKEDYVNPSTLEPRLASLIKGRQLNNYNQRHAN
B2: ANAC046(300-338), fragment containing AD2/M5 with its context (domain or fragment, Arabidopsis thaliana, UniProt Q9SQQ6 300-338, looked up)
chain: ATPEISSYPMMMNPAMMDGSKSACDGLDDLIFWEDLYTS
B3: ANAC046(172-222, S175W), fragment containing AD1/M1-2 (domain or fragment, Arabidopsis thaliana, UniProt Q9SQQ6 172-222, looked up)
chain: NAPWTTITTTKQLSRIDSLDNIDHLLDFSSLPPLIDPGFLGQPGPSFSGAR
B4: RST domain of Radical-Induced Cell Death1 (RCD1), RCD1-RST(499-572) (domain or fragment, Arabidopsis, UniProt Q8RY59 499-572, looked up)
chain: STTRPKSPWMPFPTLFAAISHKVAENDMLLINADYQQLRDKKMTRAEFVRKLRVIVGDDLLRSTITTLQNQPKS
B5: TAZ1 domain of HAC1, HAC1-TAZ1(626-724) (domain or fragment, Arabidopsis, UniProt Q9C5X9 626-724, looked up)
chain: GNGNRDPRFKNQQKWLLFLRHARHCKAPEGKCPDRNCVTVQKLWKHMDSCAAPQCSYPRCLPTKTLINHHRSCKEPNCPVCIPVKAYLQQQANARSLAR
B6: TAZ2 domain of HAC1, HAC1-TAZ2(1574-1697) (domain or fragment, Arabidopsis, UniProt Q9C5X9 1574-1697, looked up)
chain: NAQNKEARQLRVLQLRKMLDLLVHASQCRSAHCQYPNCRKVKGLFRHGINCKVRASGGCVLCKKMWYLLQLHARACKESECHVPRCRDLKEHLRRLQQQSDSRRRAAVMEMMRQRAAEVAGGSG
B7: ACID domain of MEDIATOR subunit 25 (MED25), MED25-ACID(532-680) (domain or fragment, Arabidopsis, UniProt Q7XYY2 532-680, looked up)
chain: SNSSAPNMQLSQPSSGAMQTSQSKYVKVWEGNLSGQRQGQPVLITRLEGYRSASASDSLAANWPPTMQIVRLISQDHMNNKQYVGKADFLVFRAMSQHGFLGQLQDKKLCAVIQLPSQTLLLSVSDKACRLIGMLFPGDMVVFKPQIPN

Assay [1] concerns the target T1, ANAC046 intrinsically disordered …. Briefly: NMR titration.
Assay [2] concerns the target B4. Briefly: ITC. A general note: ITC needs no label: the signal is the heat of the interaction.
In assay [3] the target is B5. Briefly: ITC.
The target in assay [4] is B4. Briefly: NMR titration.
Assay [5] has as its target B5. Briefly: NMR titration.
In assay [6] the target is T1, ANAC046 intrinsically disordered …. Briefly: ITC.
Assay [7] has as its target B2. Briefly: ITC.
Assay [8] addresses T1, ANAC046 intrinsically disordered …. Briefly: ITC. This is another data set of the same source.

As to B1, the binding result in assay [1] is recorded as “binds”.
On to B2, for which, in assay [2], the dissociation constant Kd was 0.12 µM, the dH is -7.41 kcal/mol and the “stoichiometry N” value amounted to 0.8. Binding in assay [3] was put at a Kd of 6 µM.
With B3, the Kd in assay [4] worked out at 148 µM; in assay [5] it was 112 µM.
In assay [6], B4 displayed a dissociation constant Kd of 0.2 µM and a dH of -5.5 kcal/mol.
On to B5, for which, in assay [7], the dH was -5.98 kcal/mol and the “stoichiometry N” value turned out to be 0.97. Further, in assay [8], the “dH, site AD1/M1-2 (two-site fit)” value was -15.5 kcal/mol and the “dH, site AD2/M5 (two-site fit)” value was -5.98 kcal/mol.
Take B6: the binding result in assay [1] is “binds”.
For the molecule B7, the binding result in assay [1] is “binds”.
